Results on 47 sequences are retold here after the NTF2 design screens of Basanta et al. (2020).

This series is described as follows: protease stability score; higher = more stable; yeast display proteolysis, trypsin and chymotrypsin.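 Also: log10 excess protease needed over predicted unfolded state with 0 meaning unfolded.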
As to “DEEVRHVAEEHFRAFSDNDPDRAKQLADPNARFQYGDREIHGMEDFVKHLETLKRDMRIQIHIKSMDVHNGRVDVTFNLMAHVNGQPFRIEVRATFEAHNGHLVEVQYRFDKKWQKTLES”, the protease stability score was determined as 0.861. As for “DEELAKNLKEWWDVLKTGDTDRLKEMADPNAKFQIGDQTIHGMDRFVKEQVHHMQQMRFEIKVDSFSAHDGRIDIDAVQRVRVNGVPIDYTVKIRAEAHNGKWKSMELEIPENVVRELER”, the figure is 1.27; as for “DEEFLRLIEEFWRAVKQNDEERLKHLLDENAKVKVGDKRLRGHEQVAKSIVDDQREMRIEMRIHKVEVDGNKVDVTYVVVFNVNGRPVSDSVRVIFRAKNGRIQMIEVRVDPDSAREQKS”, 1.37; as for “EEKAEELVERFITAIETNDPDEVVNNIDPNARLRVGDKHVSGRDHQRQQVEEQERHMRVKYQHVRIDVTGDHARVHVVQVDNHNGKPRRFKYSASFVVQGDKIKHASQTTTE”, -0.163.

“DERKAVKHLNTMMRLINTGNPSEAADQADKDVKVHIGDKDVHGRERASDLIKKLRDRVDTIKVKSIEERPNHLSAKIDLEHNGRTHTVVFIIHAENGKVTSMSVKTD” came in with a protease stability score of -0.349.

Consider “DEEELTKTLHEIIKDFVHGDSNQLRENADPNVKLKVGDKEIRGHHEVHKWAKKLRERVDSIKVKDYSATGEKAVAHVIADINGENVEITIVIQAHNGRIKLITVDPEDDKKMKQ”, for which the protease stability score worked out at 0.279. In turn, “DEQDQARKNVKTLANAIEDNDENQVHRLMDPNARLRIGDKDYHGREEAAHAMREIRETFDHIRIQVTRVRVEGDKINLIAKVNRNHNGRNEESEVDIQFVQDNGRARIVRLVDR” gave a protease stability score of 0.554.

Consider “DERQIEQLKRYLEALKTGDKEKIKELLDPNARIVYGDKEVKGRENIAEQVKKRKDDSRYDWTSVDVKTSGDKLVMTARKVNNRNGRPHERQFTADIKIKNGRMQHLQFDSTG”, for which the protease stability score was -0.323. As for “EEDQERQAEKLIRILENGDEDKAKEQADPNARFEYGDKKYHGMSNFATEVKKLRDHARVEFDNIRVRAHGDKVRIRLDFKVNINGDPSRFNVHMFNQMHNGQFKQMYKDLDPTELEQIHK”, the figure is -0.25; as for “DEKQMRSVTKFIRVLQHGDNNQLRRLADPNAKARVGEKDVTGMDDILTRWVTFVEQARVKIDIREMDVSNGKVVIDAHIEIDINGRPLRDKITIIAEYRNGRLKFLELHVDQDFMRKVKR”, 0.223. As for “DEEELKHINRELVEVAKTGNPDEWRKLMRKDVTMHVGDKTYHGREKVREHAKTLRDRIDHINVRSVSATGDKVVLNFEAKVNGQTRTYQFQARVHNGRIVSAHINER”, the figure is 0.006; as for “DSDQSKREMDKFLEMVSTGDPDEVNRLLDKDAHAHVGDQTYHGREEISHMWKELREKIDHLEVHDYKVNGNKLEVDMHATINGQNVVFTVVAVLRNGHFESVEVQYRSEEEEEKVKR”, 0.452; as for “DDEAVRQIQTMVRNQNTGDPDKVAEQMDPNVQVDYGDTNLQGREHVHHWLEELKRQARFELTSVKAESQGDNIHVQVDRKVNVNGQPRRDEMHFEVRVHNGRIRSVDIQFDPDKYRQIMS”, -0.28. As for “DEREAENARNYQENQKTNNPQKLQELVDPNVHWQVGDKSYKGRETQKKEMDNKRNHIREHIEHVEVRSHGDKVEAKYTAYADINGDPVRMRFDQVMVVHNGRLTEVNVDMSEDQKRKQES”, the figure is -0.46; as for “DTENVKKATDYVHALNTGDEHRVKELMDPNARIRYGDKEVKGHDEIAKTLKTERDQSRVEFDIKRVEHQGNKVSIDLNFRKNQNGQPRSTKVNITVVFHNGKIKEINIQTDG”, 1.59.

In turn, “DEEKLKKVIDTLQKALQNGNPDEIVKVIDKTVKFKLGDETFEGQEDARKVIKRLRDQGMEFHVERQEVTGDQAKVQTVWHAGDVEMHMHVTYDVDGDKVKRVEVRWDEEAKKAVKKG” returned a protease stability score of 0.562. “DEDLLRKIKQLLRAFEDNNEDQLRKNADPNARFVYGDKHIHGMEEAMRHQVTRYKEIRIERQIDTMSVTNGRANVQFTVVENHNGRPDTFHVQVDIKAHNGRVHTIEYEIHK” registered a protease stability score of 0.387. As for “DDHVNREINRLMEKNDEQKFVDQADENASMDVGNKRYHGRDAAIKAARAWRKAADHVRIKRFEYSNGKIIIVVVVQFNGHRYDVTIDIVHHNGKVKEFVVRFTDPEQERDFRDWLG”, the figure is 0.509; as for “DERNSELLKKVQEAWDHGDPRKLDEQMDPNAKVNVGDKNLHGKEQLRNTLEEDTRHSRVRVDYDSVTDHNGRVRASATFQDVINGKPVRDTFDFVAEVNNGKMKMLKVRVPEDNKRKLKR”, 0.022. Take “DERLHKQIERLFEQLNTGDEDKYVEYADPNARINVGDKNVHGRDQIRHMIRKENQEIRVEYEVKDIKASNGRARVDATVENEENGRPHTNRIDLVINVHNGRAKEIELRVPEDLLRTMKS”: the protease stability score is -0.131. Take “DDSVKRLIKNLLKAWEHGDEHRARELMDEDARVTYGDQQVTGREEVARHHATRQKEIRYSIENMDVKVQGNHVEIHVEQQQTHNGEPKQFRYTMDVEARNGKIKRFEIQERR”: the protease stability score came out at 0.187.

Sequence “DDEARKRIRTYWELYNQGNESKLEEMVDKDVRFEVGDKTIEGRRQVSTQLHREVREADVRVDIESIHVTGNKVDVEFRHSRDHNGQPETDQQRAEFNMDNGKIQSVVHRKDG” showed a protease stability score of -0.204.

The sequence “DERKIEHAQRILKHNDKHKLQNLFDKNARLEIGDTTFTGRERAQHWARRLYQQADHFEVKSVDNNPNDLTVELVVRVNGHDIHFQFRFRIKNGRITSFQVDYTDEDDERKMKDVDR” returned a protease stability score of 0.369. The sequence “DEDAKRSLNELWKAIQQGDPDRIRELIDKNVRLRYGEKRIHGRDQAAKFWHDLHDHARFKVRDVSIKIHNGRADVRMRMTIHINGEPLDVTVIYKIEFHNGQAVRIELEVDEDQLRKQRK” showed a protease stability score of 0.845.

“DETKLMTELAEKLNRVIQKNNPDEARKLMDPNARQQVGDTRYHGNEQLAEYMKDMHERYDHVEVDVKDVNVSGDHATLEAKVHFRHNGKNTTINQNIVATIHNGKVVLKQVTSK”: the protease stability score was 0.465. As for “DQSELRDFVEEFLEIFRHGNEDDARRLVDKDATAKVGDKTYNGEEQVLDFLKQLRNRADHVQIDTFRVEGDKMEAHMRLNVNGKTVQVVIQAEVRNGRIKHFRMDPNDLRKLEK”, the figure is 0.657; as for “DKDLIERDKQWWTAVRHNNPDRLSENVDENASVRIGDKEVHGRKDISRLIKHLRDTMHESYKIERVNKEEGRANIQASATRDHNGRPRTARVQVIVEAHNGRIKRIQVQFNS”, -0.336; as for “DEHNVELARKLRSAVEKNSEKEAKNNIDKDVRAQYGDQEINGREHFAEWVQRLTHHIQWEIKSVTVRVTNGRVDVKMHVREEQNGKPREMDVKMTVVFDNGRIENVQVKKHG”, 0.448. As for “DEELMKTVHDLYSNLRQNDEHKFDELVDPNASLRVGDKRLHGREQIHDELKRQNEEIHVSRQMKEMTVHNGRADVNIRASETHNGQPDEFTIDATFELHNGRFISIDIKKRP”, the figure is -0.529.

The sequence “DDSANERAKKVMHALKTGDPDTMSELLDPNATVDVGEKQVKGMDNIVDILRKERDQIRYSIDVKRMNAKGDKVVVDATRESHHNGQPRSWHFTIFFNNTNGRVKNLKVEESG” registered a protease stability score of 0.626. As for “DDDQNRRFKEMLEVRKTGDEHRLKQLLDPNARLNIGDKRIHGREEIARFMKTKFDESRSEVDVKDVKAHNGRISVTADFRNSSNGQPQRYTATMRATIHNGSFQEIQIDTEK”, the figure is -0.234; as for “DEESLRKFAKRVFRALQTGNPEDIHRLFDKDAHFVVGDKEVHGREQAIKFLSHIRRRADRISLKRMSVRGDKVSIDLQMTVDGHRTRFIVYIQVHNGRARRLKIEEN”, 1.57; as for “DDRELEDVQRVVETGDPDKLNDLADKDARMQVGDHKVRGSDQVRSLMDKLKKRIDHYDVKSITIRNGRLDATVVFVINGEEIEVRIVLRVHNGRLKEMSIHATSERVQTILKKAMS”, 0.803. As for “DEEDMQRFFKEFLKAQETGDPDEIRRQMDPNARAHVGDKEYHGREQVAKMFRDVRERVDRIRIESVDIQGNKANVDVTYNVNGRKARINVTLKAHNGRFKEMHFNPEDTKEMEK”, the figure is 0.033; as for “DHDAAHQFKKMLDALRTNDEEHARRMADPNAKFQIGDKTYKGMDTFIRQLVREAREIKIHIDDIKVHDKGDKAVLNVNVKFSKNGEPDSRVLNFEFRAHNGHLKEIVVRDDK”, 0.757; as for “DEEAVRHYHEMVREEETGNEDEAMKYFDPNATVRIGDKTVKGKDSIRKWVRDRRDEMRVEIHQLNVHVSNGQIDVSVDFTKEHNGRPQTMQQKVRVTATNGKIKKVNNHDDG”, -0.261. Take “DEDAERLINQLLTAERRGNPDQVMQQVDKNATQTVGDKHIHGREDISREVEKRKRESRVDRKVESIDIRGNQARIEVHFEEDRNGKPVTSAQTMDITFHNGVVHERKVQDDS”: the protease stability score was -0.743. Sequence “DEKEQEDFARSFIEAFRTNDPSQIKTLMDEEATVSVGDKTYHGRKAAEDWATQLKEEVDHIDVKDLKVHNGHIEIEVRLKVNGHTRDYLISIQFHNGRVKRMSVSKQ” had a protease stability score of -0.432. The sequence “DEESMHRMVTDLMHIIDSGNPDEAVKLADPNVQVTYGDRKYHGQDAVRDYIRELKKRVDTVNLKRVELSGEKATATAVFNVNGNRVDVEMTVTAQNGKIQSIDASVRDPDQKRKEKK” came in with a protease stability score of 0.8.

“DDEDFKKFKELVETGDWSSLRKQADKNVRQRVGDKQIHGKEEFSRLLKHLQDQIDHVEIKHMQDEPNHLRVDVVWNINGVRVRFQYIVELSNGHIKYIKIDVTDENKLTKLQDLLQ”: the protease stability score stood at 0.491. As for “DETDLERWARTFIEVFQTGDENRFRKMVDPNARLNVGEKNVHGKEEMAKAAKKLRDKVDHMHVRDLQINPPTIEIHIDFHHNGQKRSQVYYVEMHNGRVTEIHVQTS”, the figure is 1.05.

Sequence “DERTLEQLLQDFINNMQTGDHQSLKDLLDENARVNIGDKTLSGRERVTTALKRLMRRVDHIQVDHYEVTNGEMNIDMQLEVNGVRVKVEVIIEVHNGKAKFIEFRVRNEEQWERVEG” gave a protease stability score of 1.84.

The sequence “DEEEKAREQQEEFQKALEKNDKEKIKNYFDPNVRVHVGDKTLHGREDVAERLIQLAQHVDHIQVEIKKLDVRNGRIDVDVVVVFERNGQRSTQRFKITMKINNGRAYVQHMKQS” displayed a protease stability score of 0.109.

As for “DEEKVFQVLVKMVQYYVSGDAEKVKKLGKDDAKVKAVDVEYRGLEQVEKAVEQFKRYGVKLQLTDHKEDGDRVDAKLVLHLGGTTWEFRVTVRADGGKVDELKVEVSDEVMKRIQDG”, the protease stability score is 0.471. Sequence “DEKDVKTAVKDFNTGSFDRFKDLADKDVTARIGNHTVKGHENFQHMMKNLKDRIDHFDVDSMTIKGNEAQMEYRFEINGHDIVVILRVDIHNGRIKHMEVEFRNEEQKKRFDDNQG” gave a protease stability score of 0.945.

In turn, “DEDQVRRIIQDLRRNNFEKMVELMDEDVKIDVGNYDYHGREAAHEILDRIRRQIDHIEYKSVTAQGDKIDVKAVAIINGKEWTFRVEVDADNGRIHSMKIRFRSEKEEQDYQKEVQ” registered a protease stability score of 1.11.

For “EEKNQEHAEQVFRAYKDGDPNQIQRLLDPNAHARIGDKQLHGREQAREIMHRLRRHLQMDLKLQDVKAEGDKLQLNARAKHDDNGRPNDVKITITFDLQNGRIKSMSVKMSG”, the protease stability score is 0.022.
